According to patent publication US20120219565A1 (Merck Sharp & Dohme, published 2012):
Several values for one entry are separate records, joined by “and”; a condition that tells them apart may be missing. Equal entries are not always repeated. Values belong to the binder of their own block, whether it stands above or below them.

Experiments:
[1] = target: Recombinant human TSLP (expressed in HEK293 cells) (human) (UniProt Q969D9); experiment: KinExA 3000, solution equilibrium, 25 °C, particles coated with biotinylated human TSLP
[2] = target: Recombinant human TSLP (expressed in HEK293 cells) (human) (UniProt Q969D9); experiment: cell-based or functional assay
[3] = target: Cynomolgus monkey TSLP (expressed in HEK293 cells) (cynomolgus monkey); experiment: cell-based or functional assay
[4] = target: Human TSLP purchased from R&D and expressed in E. coli (human) (UniProt Q969D9); experiment: cell-based or functional assay
[5] = target: Recombinant human TSLP (expressed in HEK293 cells) (human) (UniProt Q969D9); experiment: SPR, BIAcore T100, TSLP immobilised on CM5, antibody injected, bivalent analyte model, room temperature
[6] = target: Cynomolgus monkey TSLP (expressed in HEK293 cells) (cynomolgus monkey); experiment: as above
[7] = target: T1, Human TSLP purchased from R&D and expressed in E. coli (human, UniProt Q969D9 29-159); experiment: SPR, BIAcore T100, R&D E. coli TSLP immobilised on CM5, antibody injected, bivalent analyte model, 37 °C
T1 construct: Bought preparation; also called human (R&D)*; hTSLP*

[8] = target: T2, Cynomolgus monkey TSLP (expressed in HEK293 cells) (cynomolgus monkey, UniProt A0A7N9CAT7 29-159); experiment: SPR, BIAcore T100, TSLP immobilised on CM5, antibody injected, bivalent analyte model, 37 °C
T2 construct: also called cyno TSLP; cTSLP

[9] = target: T2, Cynomolgus monkey TSLP (expressed in …); experiment: SPR, BIAcore T100, TSLP immobilised on CM5, antibody injected, bivalent analyte model, room temperature
[10] = target: T1, Human TSLP purchased from R&D and …; experiment: cell-based or functional assay
[11] = target: T2, Cynomolgus monkey TSLP (expressed in …); experiment: cell-based or functional assay
[12] = target: T3, Recombinant human TSLP (expressed in HEK293 cells) (human, UniProt Q969D9 29-159); experiment: cell-based or functional assay
[13] = target: T1, Human TSLP purchased from R&D and …; experiment: SPR, BIAcore T100, R&D E. coli TSLP immobilised on CM5, antibody injected, bivalent analyte model, room temperature
[14] = target: T3, Recombinant human TSLP (expressed in …); experiment: KinExA 3000, solution equilibrium, 25 °C, particles coated with biotinylated human TSLP

Kd [1]: 0.0011 nM
EC 50, inhibition of TSLP-induced proliferation of Ba/F3-TSLPR-IL7Ra cells [2]: 0.022 mg/L and 0.025 mg/L and 0.014 mg/L
EC 50, inhibition of TSLP-induced proliferation of Ba/F3-TSLPR-IL7Ra cells [3]: 0.064 mg/L and 0.122 mg/L and 0.054 mg/L
EC 50, inhibition of TSLP-induced proliferation of Ba/F3-TSLPR-IL7Ra cells [4]: 0.083 mg/L
Kd [5]: 0.141 nM and 0.13 nM
Kd [6]: 0.159 nM
B1: Parental rat antibody 23B12 (antibody, from a related filing, V domains shown)
VH: EEKLQQSGDDLVRPGAAVKMSCKASGYIFTDYAMHWVKQRPGQGLEWIGTFIPLLDTSDYNQNFKGRATLTADKSSNTAYMELSRLTSEDSAVYYCARMGVTHSYVMDAWGQGASVTVSS
VL: DIVLTQSPATLSVTPGESVSLSCRASQPISISVHWFQQKSNESPRLLIKFASQSISGIPSRFSGSGSGTDFTLNINRVESEDFSVYYCQQTFSLPYTFGTGTKLELKR

Kd [7]: 0.299 nM
Kd [8]: 0.381 nM
Kd [9]: 0.138 nM and 0.08 nM and 0.115 nM and 0.127 nM
EC 50, inhibition of TSLP-induced proliferation of Ba/F3-TSLPR-IL7Ra cells [10]: 0.137 mg/L and 0.215 mg/L
EC 50, inhibition of TSLP-induced proliferation of Ba/F3-TSLPR-IL7Ra cells [11]: 0.117 mg/L and 0.077 mg/L and 0.158 mg/L and 0.067 mg/L
EC 50, inhibition of TSLP-induced proliferation of Ba/F3-TSLPR-IL7Ra cells [12]: 0.041 mg/L and 0.024 mg/L
Kd [13]: 0.339 nM
Kd [14]: 0.0032 nM
B2: Humanized anti hu TSLP mAb 23B12 (comprising the heavy chain of SEQ ID NO:11 and the light chain of SEQ ID NO:12 of the instant application) (antibody, human IgG1, kappa, V domains shown)
VH: QVQLVQSGAEVKKPGASVKVSCKASGYIFTDYAMHWVRQAPGQGLEWMGTFIPLLDTSDYAQKFQGRVTMTADTSTSTAYMELRSLRSDDTAVYYCARMGVTHSYVMDAWGQGTLVTVSS
VL: EIVLTQSPGTLSLSPGERATLSCRASQPISISVHWYQQKPGQAPRLLIYFASQSISGIPDRFSGSGSGTDFTLTISRLEPEDFAVYYCQQTFSLPYTFGQGTKVEIKR
notes: Vector deposited as ATCC PTA-10482; also called Antibody 4
